Results reported in US20240270821A1, “GIP/GLP1/GCG TRI-RECEPTOR AGONISTS AND USES THEREOF” (priority 2023, published 2024).

T1: human GIP receptor (human) (UniProt P48546)
T1 sequence (looked up): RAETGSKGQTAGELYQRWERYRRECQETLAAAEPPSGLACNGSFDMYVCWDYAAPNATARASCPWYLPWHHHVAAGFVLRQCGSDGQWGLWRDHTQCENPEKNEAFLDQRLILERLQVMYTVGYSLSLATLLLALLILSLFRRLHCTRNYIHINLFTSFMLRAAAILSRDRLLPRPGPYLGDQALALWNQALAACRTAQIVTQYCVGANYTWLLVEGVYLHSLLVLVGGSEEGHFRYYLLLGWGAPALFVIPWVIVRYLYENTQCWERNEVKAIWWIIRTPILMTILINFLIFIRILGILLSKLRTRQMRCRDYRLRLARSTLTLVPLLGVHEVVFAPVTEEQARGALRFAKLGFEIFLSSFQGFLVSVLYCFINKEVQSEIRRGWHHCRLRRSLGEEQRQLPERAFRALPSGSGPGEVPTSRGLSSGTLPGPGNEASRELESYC


Experiments:
Test in all cases: cell-based or functional assay
[1] = target: human glucagon receptor (human) (UniProt P47871)
[2] = target: hGLP-1R (Homo sapiens, UniProt P43220)
[3] = target: T1, human GIP receptor (human)

human glucagon receptor (human), sequence (P47871 26-477): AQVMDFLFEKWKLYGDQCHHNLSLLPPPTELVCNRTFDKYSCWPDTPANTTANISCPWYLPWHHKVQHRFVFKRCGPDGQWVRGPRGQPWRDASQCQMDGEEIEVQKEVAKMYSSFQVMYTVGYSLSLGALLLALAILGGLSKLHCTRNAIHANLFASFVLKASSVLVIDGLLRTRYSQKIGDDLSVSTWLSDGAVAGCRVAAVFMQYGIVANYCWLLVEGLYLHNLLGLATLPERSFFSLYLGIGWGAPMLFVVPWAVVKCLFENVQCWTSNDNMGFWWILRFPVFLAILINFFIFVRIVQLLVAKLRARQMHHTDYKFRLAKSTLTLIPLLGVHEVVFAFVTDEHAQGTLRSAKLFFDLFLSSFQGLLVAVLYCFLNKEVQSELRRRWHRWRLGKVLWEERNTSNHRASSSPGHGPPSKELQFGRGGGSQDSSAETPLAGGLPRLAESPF
hGLP-1R, sequence (P43220 24-463): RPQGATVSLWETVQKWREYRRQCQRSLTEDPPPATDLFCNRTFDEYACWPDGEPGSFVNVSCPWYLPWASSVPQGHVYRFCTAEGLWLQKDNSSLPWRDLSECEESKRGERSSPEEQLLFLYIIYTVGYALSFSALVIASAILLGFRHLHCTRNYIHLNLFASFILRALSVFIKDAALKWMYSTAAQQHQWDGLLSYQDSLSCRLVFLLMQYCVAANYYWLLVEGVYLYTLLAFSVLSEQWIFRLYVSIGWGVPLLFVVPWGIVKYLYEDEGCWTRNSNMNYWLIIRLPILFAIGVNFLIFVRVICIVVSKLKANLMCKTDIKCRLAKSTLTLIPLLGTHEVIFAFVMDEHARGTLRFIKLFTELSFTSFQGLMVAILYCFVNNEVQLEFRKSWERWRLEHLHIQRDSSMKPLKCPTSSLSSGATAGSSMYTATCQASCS

Row | Binder | Relative cAMP EC50 [1] | Relative cAMP EC50 [2] | Relative cAMP EC50 [3] | cAMP Rel EC50, nM (1% HSA) [1] | cAMP Rel EC50, nM (1% HSA) [2] | cAMP Rel EC50, nM (1% HSA) [3] | cAMP Rel EC50 (in the presence of 1% HSA) [1] | cAMP Rel EC50 (in the presence of 1% HSA) [2] | cAMP Rel EC50 (in the presence of 1% HSA) [3]
1 | YXQGTFTSDFSXXLDKKAQXAFIEYLIEXGESSGAPPPSGE (non-natural residues, acylated Lys, C-terminal amide; synthetic construct; SITE 2: note = 2-Aminoisobutyric Acid; SITE 12: note = L-ornithine; SITE 13: note = alpha-methyl-leucine; SITE 17: note = Lysine is chemically modified through conjugation of the epsilon-amino group of the Lysine side chain with (2-[2-(2-Amino-ethoxy)-ethoxy]-acetyl)-(gamma-Glu)) [Example 228] | 1.38 nM | 1.52 nM | 0.147 nM | – | – | – | – | – | –
2 | YXQGTFTSDFSXXLDKKAQXAFIEYLLEGGXSSGAPPPGGS (acylated; synthetic construct; SITE 2: note = 2-Aminoisobutyric Acid; SITE 12: note = L-ornithine; SITE 13: note = alpha-methyl-leucine; SITE 17: note = Lysine is chemically modified through conjugation of the epsilon-amino group of the Lysine side chain with (2-[2-(2-Amino-ethoxy)-ethoxy]-acetyl)-(gamma-Glu)) [Example 234] | 7.87 nM | 4.72 nM | 0.322 nM | 702 nM | 604 nM | 31.1 nM | – | – | –
3 | YXQGTFTSDFSXXLDKKAQXAFIEWLLEAGSSSGAPPPSGT (C-terminal amide; lysine acylated with AEEA-γ-Glu-C18 diacid; synthetic construct; SITE 2: note = 2-Aminoisobutyric Acid; SITE 12: note = L-ornithine; SITE 13: note = alpha-methyl-leucine; SITE 17: note = Lysine is chemically modified through conjugation of the epsilon-amino group of the Lysine side chain with (2-[2-(2-Amino-ethoxy)-ethoxy]-acetyl)-(gamma-Glu)) [Example 263] | 7.53 nM | 1.32 nM | 0.169 nM | – | – | – | 893 nM | 257 nM | 25.7 nM
4 | YXQGTFTSDFSXXLDKKAQXAFIEYLLEXGESSGAPPPSGS (acylated; synthetic construct; SITE 2: note = 2-Aminoisobutyric Acid; SITE 12: note = L-ornithine; SITE 13: note = alpha-methyl-leucine; SITE 17: note = Lysine is chemically modified through conjugation of the epsilon-amino group of the Lysine side chain with (gamma-Glu)-(2-[2-(2-Amino-ethoxy)-ethoxy]-acetyl)) [Example 244] | 4.81 nM | 7.68 nM | 0.0972 nM | 1230 nM | 645 nM | 18.8 nM | – | – | –
5 | YXQGTFTSDFSXXLDKKAQXAFIEYLLEXGHSSGAPPPSGS (Aib, Orn, αMeL; lipidated Lys; C-terminal amide; synthetic construct; SITE 2: note = 2-Aminoisobutyric Acid; SITE 12: note = L-ornithine; SITE 13: note = alpha-methyl-leucine; SITE 17: note = Lysine is chemically modified through conjugation of the epsilon-amino group of the Lysine side chain with (2-[2-(2-Amino-ethoxy)-ethoxy]-acetyl)-(gamma-Glu)) [Example 243] | 6.86 nM | 6.46 nM | 0.178 nM | – | – | – | – | – | –
6 | YXQGTFTSDFSXXLDKKAQXAFIEWLLEXGSSSGAPPPSGT (Aib, Orn, αMeL, acylated K, C-terminal amide; synthetic construct; SITE 2: note = 2-Aminoisobutyric Acid; SITE 12: note = L-ornithine; SITE 13: note = alpha-methyl-leucine; SITE 17: note = Lysine is chemically modified through conjugation of the epsilon-amino group of the Lysine side chain with (2-[2-(2-Amino-ethoxy)-ethoxy]-acetyl)-(gamma-Glu)) [Example 264] | 6.29 nM | 4.67 nM | 0.0884 nM | – | – | – | 1000 nM | 688 nM | 12.4 nM
7 | YXQGTFTSDFSXXLDKKAQXAFIEYLIEXGESSGAPPPSGS (non-natural residues; lipidated Lys AEEA-γGlu-C18 diacid; C-term amide; synthetic construct; SITE 2: note = 2-Aminoisobutyric Acid; SITE 12: note = L-ornithine; SITE 13: note = alpha-methyl-leucine; SITE 17: note = Lysine is chemically modified through conjugation of the epsilon-amino group of the Lysine side chain with (2-[2-(2-Amino-ethoxy)-ethoxy]-acetyl)-(gamma-Glu)) [Example 229] | 2.3 nM | 1.58 nM | 0.179 nM | – | – | – | – | – | –
8 | YXQGTFTSDFSXXLDKKAQXAFIEYLLEXGESSGAPPPSGS (acylated; synthetic construct; SITE 2: note = 2-Aminoisobutyric Acid; SITE 12: note = L-ornithine; SITE 13: note = alpha-methyl-leucine; SITE 17: note = Lysine is chemically modified through conjugation of the epsilon-amino group of the Lysine side chain with (2-[2-(2-Amino-ethoxy)-ethoxy]-acetyl)-(gamma-Glu)) [Example 240] | 2.02 nM | 3.62 nM | 0.214 nM | 521 nM | 396 nM | 10.4 nM | – | – | –
9 | YXQGTFTSDFSXXLDKKAQXAFIEYLLEAGPSSGXPPPSGX (acylated lysine (AEEA)2-γGlu-C18 diacid; non-natural residues; C-terminal amide; synthetic construct; SITE 2: note = 2-Aminoisobutyric Acid; SITE 12: note = L-ornithine; SITE 13: note = alpha-methyl-leucine; SITE 17: note = Lysine is chemically modified through conjugation of the epsilon-amino group of the Lysine side chain with (2-[2-(2-Amino-ethoxy)-ethoxy]-acetyl)2-(gamma-Glu)) [Example 258] | 7.15 nM | 2.71 nM | 0.154 nM | – | – | – | 1280 nM | 492 nM | 23.3 nM
10 | YXQGTFTSDFSXXLDKKAQXAFIEYLLEGGPSSGAPPPSGT (Aib, Orn, αMeL; (γGlu)2-C18 diacid on Lys; C-terminal amide; synthetic construct; SITE 2: note = 2-Aminoisobutyric Acid; SITE 12: note = L-ornithine; SITE 13: note = alpha-methyl-leucine; SITE 17: note = Lysine is chemically modified through conjugation of the epsilon-amino group of the Lysine side chain with (gamma-Glu)2-CO-(CH2)16-CO2H; SITE 20: note = 2-Am) [Example 260] | 5.04 nM | 3.85 nM | 0.251 nM | – | – | – | 162 nM | 160 nM | 12.4 nM
11 | YXQGTFTSDFSXXLDKKAQXAFIEYLLEAGPSSGXPPPSGH (Aib, Orn, αMeL, D-Ala, 4Pal; acylated lysine; amide; synthetic construct; SITE 2: note = 2-Aminoisobutyric Acid; SITE 12: note = L-ornithine; SITE 13: note = alpha-methyl-leucine; SITE 17: note = Lysine is chemically modified through conjugation of the epsilon-amino group of the Lysine side chain with (2-[2-(2-Amino-ethoxy)-ethoxy]-acetyl)2-(gamma-Glu)) [Example 257] | 7.36 nM | 2.66 nM | 0.135 nM | – | – | – | 1210 nM | 388 nM | 21 nM
12 | YXQGTFTSDFSXXLDKKAQXAFIEYLLEAGPSSGAPPPSGH (C-terminal amide; lysine acylated with AEEA-γ-Glu-C18 diacid; synthetic construct; SITE 2: note = 2-Aminoisobutyric Acid; SITE 12: note = L-ornithine; SITE 13: note = alpha-methyl-leucine; SITE 17: note = Lysine is chemically modified through conjugation of the epsilon-amino group of the Lysine side chain with (2-[2-(2-Amino-ethoxy)-ethoxy]-acetyl)-(gamma-Glu)) [Example 259] | 2.55 nM | 1.47 nM | 0.114 nM | – | – | – | 317 nM | 220 nM | 18.4 nM
13 | YXQGTFTSDFSXXLDKKAQXAFIEYLLEGGPSSGAPPPGGX (C-terminal amide; lysine acylated with AEEA-γ-Glu-C18 diacid; synthetic construct; SITE 2: note = 2-Aminoisobutyric Acid; SITE 12: note = L-ornithine; SITE 13: note = alpha-methyl-leucine; SITE 17: note = Lysine is chemically modified through conjugation of the epsilon-amino group of the Lysine side chain with (2-[2-(2-Amino-ethoxy)-ethoxy]-acetyl)-(gamma-Glu)) [Example 261] | 5.49 nM | 3.12 nM | 0.29 nM | – | – | – | 520 nM | 383 nM | 38.4 nM
14 | YXQGTFTSDFSXXLDKKAQXAFIEYLLEXGHSSGAPPPSGS (acylated; synthetic construct; SITE 2: note = 2-Aminoisobutyric Acid; SITE 12: note = L-ornithine; SITE 13: note = alpha-methyl-leucine; SITE 17: note = Lysine is chemically modified through conjugation of the epsilon-amino group of the Lysine side chain with (gamma-Glu)-(2-[2-(2-Amino-ethoxy)-ethoxy]-acetyl)) [Example 245] | 7.07 nM | 5.99 nM | 0.0684 nM | 1120 nM | 540 nM | 10.5 nM | – | – | –
15 | YXQGTFTSDFSXXLDKKAQXAFIEYLLEGGPSSGAXPPGGS (acylated; synthetic construct; SITE 2: note = 2-Aminoisobutyric Acid; SITE 12: note = L-ornithine; SITE 13: note = alpha-methyl-leucine; SITE 17: note = Lysine is chemically modified through conjugation of the epsilon-amino group of the Lysine side chain with (2-[2-(2-Amino-ethoxy)-ethoxy]-acetyl)-(gamma-Glu)) [Example 235] | 4.35 nM | 3.55 nM | 0.388 nM | 700 nM | 457 nM | 40.8 nM | – | – | –
16 | YXQGTFTSDFSXXLDKKAQXAFIEWLLEGGPSSGAPPPEGX (non-natural residues; acylated Lys; C-terminal amide; synthetic construct; SITE 2: note = 2-Aminoisobutyric Acid; SITE 12: note = L-ornithine; SITE 13: note = alpha-methyl-leucine; SITE 17: note = Lysine is chemically modified through conjugation of the epsilon-amino group of the Lysine side chain with (2-[2-(2-Amino-ethoxy)-ethoxy]-acetyl)-(gamma-Glu)) [Example 262] | 9.77 nM | 4.39 nM | 0.232 nM | – | – | – | 720 nM | 400 nM | 40.4 nM
17 | YXQGTFTSDFSXXLDKKAQXAFIEYLLEGGPSSGAPXPGGS (acylated; synthetic construct; SITE 2: note = 2-Aminoisobutyric Acid; SITE 12: note = L-ornithine; SITE 13: note = alpha-methyl-leucine; SITE 17: note = Lysine is chemically modified through conjugation of the epsilon-amino group of the Lysine side chain with (2-[2-(2-Amino-ethoxy)-ethoxy]-acetyl)-(gamma-Glu)) [Example 236] | 2.23 nM | 3.33 nM | 0.309 nM | 309 nM | 261 nM | 24.8 nM | – | – | –
18 | YXQGTFTSDFSXXLDKKAQXAFIEYLLEGGPSSGAPPXGGS (acylated; synthetic construct; SITE 2: note = 2-Aminoisobutyric Acid; SITE 12: note = L-ornithine; SITE 13: note = alpha-methyl-leucine; SITE 17: note = Lysine is chemically modified through conjugation of the epsilon-amino group of the Lysine side chain with (2-[2-(2-Amino-ethoxy)-ethoxy]-acetyl)-(gamma-Glu)) [Example 237] | 3.77 nM | 3.4 nM | 0.228 nM | 441 nM | 291 nM | 30.9 nM | – | – | –
